Source: the supplement of paper PMC9112550, “Optimization of the antimicrobial peptide Bac7 by deep mutational scanning” (BMC Biology, 2022)

Tested on: Escherichia coli TOP10
Test: shrunken log2 fold change of peptide-encoding DNA abundance (4.5 h post-induction vs induction); higher = less antimicrobial activity (less host growth inhibition)
Conditions: time post-induction: 4.5 h; library: site-saturation at positions 5, 18, 19, 20
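Further: peptides expressed intracellularly from a pBAD plasmid library in pooled LB shake-flask culture, induced with 0.3% L-arabinose, DNA abundance read by NGS, three biological replicates, DESeq2 with apeglm shrinkage.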

Sequence	shrunken log2 fold change
RRIRQRPPRLPRPRPRPMRGPRP	0.904
RRIRQRPPRLPRPRPRPMSAPRP	-0.107
RRIRQRPPRLPRPRPRPMSCPRP	0.029
RRIRQRPPRLPRPRPRPMSQPRP	-0.0185
RRIRQRPPRLPRPRPRPMYFPRP	-0.448
RRIRQRPPRLPRPRPRPMYPPRP	-0.329
RRIRQRPPRLPRPRPRPMYTPRP	-0.639
RRIRQRPPRLPRPRPRPNAKPRP	-0.0176
RRIRQRPPRLPRPRPRPNAQPRP	0.0116
RRIRQRPPRLPRPRPRPNCCPRP	0.0381
RRIRQRPPRLPRPRPRPNCGPRP	0.0184
RRIRQRPPRLPRPRPRPNCVPRP	-0.0688
RRIRQRPPRLPRPRPRPNFAPRP	0.24
RRIRQRPPRLPRPRPRPNFFPRP	0.313
RRIRQRPPRLPRPRPRPNGNPRP	-0.405
RRIRQRPPRLPRPRPRPNGYPRP	-0.121
RRIRQRPPRLPRPRPRPNHFPRP	0.189
RRIRQRPPRLPRPRPRPNIFPRP	-0.496
RRIRQRPPRLPRPRPRPNKMPRP	-0.0321
RRIRQRPPRLPRPRPRPNLNPRP	-0.221
RRIRQRPPRLPRPRPRPNNMPRP	-0.378
RRIRQRPPRLPRPRPRPNNPPRP	-0.282
RRIRQRPPRLPRPRPRPNNSPRP	-0.904
RRIRQRPPRLPRPRPRPNNTPRP	-0.578
RRIRQRPPRLPRPRPRPNPAPRP	0.17

Sequence	shrunken log2 fold change
RRIRQRPPRLPRPRPRPNPHPRP	0.121
RRIRQRPPRLPRPRPRPNPYPRP	-0.0811
RRIRQRPPRLPRPRPRPNQGPRP	0.084
RRIRQRPPRLPRPRPRPNQPPRP	-0.0757
RRIRQRPPRLPRPRPRPNRAPRP	0.025
RRIRQRPPRLPRPRPRPNRCPRP	-0.0278
RRIRQRPPRLPRPRPRPNSMPRP	-0.25
RRIRQRPPRLPRPRPRPNVRPRP	0.0221
RRIRQRPPRLPRPRPRPNWWPRP	0.00333
RRIRQRPPRLPRPRPRPNYGPRP	-0.299
RRIRQRPPRLPRPRPRPPDQPRP	1.82
RRIRQRPPRLPRPRPRPPGWPRP	-0.0951
RRIRQRPPRLPRPRPRPPIKPRP	-0.0648
RRIRQRPPRLPRPRPRPPKIPRP	0.156
RRIRQRPPRLPRPRPRPPLQPRP	0.218
RRIRQRPPRLPRPRPRPPMCPRP	-0.213
RRIRQRPPRLPRPRPRPPMLPRP	0.117
RRIRQRPPRLPRPRPRPPNWPRP	0.358
RRIRQRPPRLPRPRPRPPPFPRP	0.259
RRIRQRPPRLPRPRPRPPQDPRP	1.1
RRIRQRPPRLPRPRPRPPQQPRP	0.497
RRIRQRPPRLPRPRPRPPQVPRP	1.3
RRIRQRPPRLPRPRPRPPRWPRP	0.303
RRIRQRPPRLPRPRPRPPVRPRP	0.739
RRIRQRPPRLPRPRPRPPWSPRP	0.223

Sequence	shrunken log2 fold change
RRIRQRPPRLPRPRPRPPYEPRP	-0.114
RRIRQRPPRLPRPRPRPPYNPRP	-0.154
RRIRQRPPRLPRPRPRPQADPRP	0.0769
RRIRQRPPRLPRPRPRPQAQPRP	0.0471
RRIRQRPPRLPRPRPRPQCTPRP	-0.0165
RRIRQRPPRLPRPRPRPQDKPRP	-0.802
RRIRQRPPRLPRPRPRPQEDPRP	-0.0264
RRIRQRPPRLPRPRPRPQERPRP	-0.00247
RRIRQRPPRLPRPRPRPQFGPRP	0.0348
RRIRQRPPRLPRPRPRPQFNPRP	-0.6
RRIRQRPPRLPRPRPRPQFRPRP	-0.0194
RRIRQRPPRLPRPRPRPQFYPRP	-0.407
RRIRQRPPRLPRPRPRPQGGPRP	0.00902
RRIRQRPPRLPRPRPRPQGWPRP	-0.151
RRIRQRPPRLPRPRPRPQIMPRP	-0.528
RRIRQRPPRLPRPRPRPQINPRP	-0.285
RRIRQRPPRLPRPRPRPQKWPRP	0.0876
RRIRQRPPRLPRPRPRPQLMPRP	-0.166
RRIRQRPPRLPRPRPRPQLSPRP	-0.0914
RRIRQRPPRLPRPRPRPQMLPRP	0.0203
RRIRQRPPRLPRPRPRPQMNPRP	-0.72
RRIRQRPPRLPRPRPRPQMVPRP	0.00426
RRIRQRPPRLPRPRPRPQQHPRP	-0.362
RRIRQRPPRLPRPRPRPQSWPRP	0.0219
RRIRQRPPRLPRPRPRPQVHPRP	0.0124

Sequence	shrunken log2 fold change
RRIRQRPPRLPRPRPRPQYNPRP	-1.1
RRIRQRPPRLPRPRPRPRCDPRP	-0.255
RRIRQRPPRLPRPRPRPRCRPRP	0.0135
RRIRQRPPRLPRPRPRPRCWPRP	0.257
RRIRQRPPRLPRPRPRPRDGPRP	0.666
RRIRQRPPRLPRPRPRPREIPRP	0.115
RRIRQRPPRLPRPRPRPREMPRP	0.0554
RRIRQRPPRLPRPRPRPRFCPRP	-0.16
RRIRQRPPRLPRPRPRPRFRPRP	0.0281
RRIRQRPPRLPRPRPRPRFWPRP	0.23
RRIRQRPPRLPRPRPRPRKAPRP	-0.0029
RRIRQRPPRLPRPRPRPRKIPRP	-0.064
RRIRQRPPRLPRPRPRPRNLPRP	0.242
RRIRQRPPRLPRPRPRPRPCPRP	0.409
RRIRQRPPRLPRPRPRPRQYPRP	-0.163
RRIRQRPPRLPRPRPRPRRPPRP	0.472
RRIRQRPPRLPRPRPRPRRRPRP	0.255
RRIRQRPPRLPRPRPRPRTCPRP	-0.576
RRIRQRPPRLPRPRPRPRTGPRP	0.443
RRIRQRPPRLPRPRPRPRTYPRP	-0.049
RRIRQRPPRLPRPRPRPRYHPRP	-0.784
RRIRQRPPRLPRPRPRPRYLPRP	-0.422
RRIRQRPPRLPRPRPRPRYVPRP	-0.215
RRIRQRPPRLPRPRPRPSAQPRP	-0.223
RRIRQRPPRLPRPRPRPSFCPRP	0.462

Sequence	shrunken log2 fold change
RRIRQRPPRLPRPRPRPSFLPRP	-0.355
RRIRQRPPRLPRPRPRPSGQPRP	-0.0485
RRIRQRPPRLPRPRPRPSHCPRP	0.0811
RRIRQRPPRLPRPRPRPSHFPRP	0.0685
RRIRQRPPRLPRPRPRPSIAPRP	-0.00998
RRIRQRPPRLPRPRPRPSKAPRP	0.356
RRIRQRPPRLPRPRPRPSKMPRP	-0.0686
RRIRQRPPRLPRPRPRPSLRPRP	0.239
RRIRQRPPRLPRPRPRPSNDPRP	-0.357
RRIRQRPPRLPRPRPRPSPKPRP	-0.143
RRIRQRPPRLPRPRPRPSQEPRP	0.0169
RRIRQRPPRLPRPRPRPSREPRP	0.111
RRIRQRPPRLPRPRPRPSTSPRP	-0.126
RRIRQRPPRLPRPRPRPSVPPRP	-0.0859
RRIRQRPPRLPRPRPRPSVQPRP	-0.0622
RRIRQRPPRLPRPRPRPSWIPRP	-0.225
RRIRQRPPRLPRPRPRPSYHPRP	-0.178
RRIRQRPPRLPRPRPRPTAVPRP	0.165
RRIRQRPPRLPRPRPRPTCNPRP	-0.348
RRIRQRPPRLPRPRPRPTDHPRP	0.0174
RRIRQRPPRLPRPRPRPTEDPRP	0.0148
RRIRQRPPRLPRPRPRPTETPRP	0.0687
RRIRQRPPRLPRPRPRPTFDPRP	0.168
RRIRQRPPRLPRPRPRPTGQPRP	0.146
RRIRQRPPRLPRPRPRPTHHPRP	0.0945

Sequence	shrunken log2 fold change
RRIRQRPPRLPRPRPRPTHQPRP	0.403
RRIRQRPPRLPRPRPRPTHYPRP	0.975
RRIRQRPPRLPRPRPRPTLAPRP	0.783
RRIRQRPPRLPRPRPRPTPDPRP	0.711
RRIRQRPPRLPRPRPRPTPEPRP	0.0617
RRIRQRPPRLPRPRPRPTPIPRP	0.182
RRIRQRPPRLPRPRPRPTQKPRP	0.0237
RRIRQRPPRLPRPRPRPTQVPRP	-0.0311
RRIRQRPPRLPRPRPRPTRIPRP	0.0389
RRIRQRPPRLPRPRPRPTRKPRP	-0.0205
RRIRQRPPRLPRPRPRPTVAPRP	0.118
RRIRQRPPRLPRPRPRPTVYPRP	0.079
RRIRQRPPRLPRPRPRPTWEPRP	0.0645
RRIRQRPPRLPRPRPRPTWWPRP	0.314
RRIRQRPPRLPRPRPRPTYLPRP	-0.562
RRIRQRPPRLPRPRPRPVALPRP	-0.0318
RRIRQRPPRLPRPRPRPVASPRP	-0.0704
RRIRQRPPRLPRPRPRPVCFPRP	-0.139
RRIRQRPPRLPRPRPRPVEAPRP	0.341
RRIRQRPPRLPRPRPRPVFEPRP	0.0624
RRIRQRPPRLPRPRPRPVFIPRP	-0.288
RRIRQRPPRLPRPRPRPVFPPRP	0.212
RRIRQRPPRLPRPRPRPVGCPRP	0.23
RRIRQRPPRLPRPRPRPVHWPRP	0.188
RRIRQRPPRLPRPRPRPVIFPRP	-0.0797
